Test results from US20220235103A1 (Molecular Partners, published 2022).

Columns and labels:
Experiment in all cases: cell-based or functional assay
[1] = target: spike protein of live SARS-CoV-2 (2019-nCoV/IDF0372/2020) (SARS-CoV-2, UniProt P0DTC2 14-1273)
[2] = target: T1, SARS-CoV-2 spike protein, wild type (Wuhan) (SARS-CoV-2, UniProt P0DTC2 14-1273)
[3] = target: SARS-CoV-2 spike protein D614G x Q675H (SARS-CoV-2, UniProt P0DTC2 14-1273)
[4] = target: T1, SARS-CoV-2 spike protein, wild type …; remark: listed apart in the source
[5] = target: T2, SARS-CoV-2 spike protein V483A (SARS-CoV-2, UniProt P0DTC2 14-1273)
[6] = target: T3, SARS-CoV-2 spike protein G476S (SARS-CoV-2, UniProt P0DTC2 14-1273)
[7] = target: T4, SARS-CoV-2 spike protein D614G (SARS-CoV-2, UniProt P0DTC2 14-1273)
[8] = target: SARS-CoV-2 spike protein G446V (SARS-CoV-2, UniProt P0DTC2 14-1273)
[9] = target: SARS-CoV-2 spike protein variant B.1.351 (SARS-CoV-2, UniProt P0DTC2 14-1273)
[10] = target: SARS-CoV-2 spike protein F486V (SARS-CoV-2, UniProt P0DTC2 14-1273)
[11] = target: SARS-CoV-2 spike protein K417E (SARS-CoV-2, UniProt P0DTC2 14-1273)
[12] = target: SARS-CoV-2 spike protein N439K (SARS-CoV-2, UniProt P0DTC2 14-1273)
[13] = target: SARS-CoV-2 spike protein S477N (SARS-CoV-2, UniProt P0DTC2 14-1273)
[14] = target: SARS-CoV-2 spike protein P479S (SARS-CoV-2, UniProt P0DTC2 14-1273)
[15] = target: T1, SARS-CoV-2 spike protein, wild type …; remark: listed apart in the source
[16] = target: T2, SARS-CoV-2 spike protein V483A; remark: listed apart in the source
[17] = target: T3, SARS-CoV-2 spike protein G476S; remark: listed apart in the source
[18] = target: T4, SARS-CoV-2 spike protein D614G; remark: listed apart in the source
[19] = target: SARS-CoV-2 spike protein N501Y (SARS-CoV-2, UniProt P0DTC2 14-1273)
[20] = target: SARS-CoV-2 spike protein E484K (SARS-CoV-2, UniProt P0DTC2 14-1273)
[21] = target: SARS-CoV-2 spike protein A222V (SARS-CoV-2, UniProt P0DTC2 14-1273)
[22] = target: SARS-CoV-2 spike protein Y453F (SARS-CoV-2, UniProt P0DTC2 14-1273)
[23] = target: SARS-CoV-2 spike protein F490S (SARS-CoV-2, UniProt P0DTC2 14-1273)
[24] = target: SARS-CoV-2 spike protein Q493K (SARS-CoV-2, UniProt P0DTC2 14-1273)
[25] = target: SARS-CoV-2 spike protein T478I (SARS-CoV-2, UniProt P0DTC2 14-1273)

B1: ALE058 (designed binder)
chain: MRGSHHHHHHGSDLGKKLLEAARAGQDDEVRELLKAGADVNAKDYFSHTPLHLAARNGHLKIVEVLLKAGADVNAKDFAGKTPLHLAANEGHLEIVEVLLKAGADVNAQDIFGKTPADIAADAGHEDIAEVLQKAAGSPTPTPTTPTPTPTTPTPTPTGSDLGKKLLEAARAGQDDEVRELLKAGADVNAKDYFSHTPLHLAARNGHLKIVEVLLKAGADVNAKDFAGKTPLHLAANEGHLEIVEVLLKAGADVNAQDIFGKTPADIAADAGHEDIAEVLQKAAGSPTPTPTTPTPTPTTPTPTPTGSDLGKKLLQAARAGQLDEVRELLKAGADVNAKDQEGITPLHVAAHQGHLEIVEVLLKAGADVNAKDVWGRTPLHLAAWRGHLEIVEVLLKAGADVNAKDHAGATPLHAAALSGHLEIVEVLLKAGADVNAQDKSGKTPADLAARAGHQDIAEVLQKAAGSPTPTPTTPTPTPTTPTPTPTGSDLGHKLLLAAQAGQDDEVRILLAAGADVNAKDVFGQTPLHVAAVAGHLEIVEVLLKAGADVNAKDSIGYTPLHHAARVGHLEIVEVLLKAGADVNAQDWIGITPADLAAFEGHEDIAEVLQKAAGSPTPTPTTPTPTPTTPTPTPTGSDLGQKLLHAAQYGQDDEVRILLAAGADVNAKDKQGNTPLHIAAFHGHLEIVEVLLKAGADVNAKDQWGLTPLHLAAAWGHLEIVEVLLKAGADVNAQDNYGQTPADLAAESGHEDIAEVLQKAA
[1]
  IC50 LV (live virus cytopathic effect assay): 0.1 nM
[2]
  IC50 (read off the curve), SARS-CoV-2 VSV pseudotype virus, no competitor: ~0.1 nM
[3]
  Potency of inhibition of SARS-CoV-2 spike protein variants (IC50): 0.0224 nM
[4]
  Potency of inhibition of SARS-CoV-2 spike protein variants (IC50): 0.00548 nM
[5]
  Potency of inhibition of SARS-CoV-2 spike protein variants (IC50): 0.0324 nM
[6]
  Potency of inhibition of SARS-CoV-2 spike protein variants (IC50): 0.0145 nM
[7]
  Potency of inhibition of SARS-CoV-2 spike protein variants (IC50): 0.00464 nM

B2: ALE049 (designed binder)
chain: MRGSHHHHHHGSDLGKKLLEAARAGQDDEVRELLKAGADVNAKDYFSHTPLHLAARNGHLKIVEVLLKAGADVNAKDFAGKTPLHLAANEGHLEIVEVLLKAGADVNAQDIFGKTPADIAADAGHEDIAEVLQKAAGSPTPTPTTPTPTPTTPTPTPTGSDLGKKLLEAARAGQDDEVRELLKAGADVNAKDYFSHTPLHLAARNGHLKIVEVLLKAGADVNAKDFAGKTPLHLAANEGHLEIVEVLLKAGADVNAQDIFGKTPADIAADAGHEDIAEVLQKAAGSPTPTPTTPTPTPTTPTPTPTGSDLGKKLLQAARAGQLDEVRELLKAGADVNAKDREGITPLHLAAQHGHLEIVEVLLKAGADVNAKDVWGRTPLHLAAWQGHLEIVEVLLKAGADVNAKDLAGATPLHVAALYGHLEIVEVLLKAGADVNAQDKSGKTPADLAARAGHQDIAEVLQKAAGSPTPTPTTPTPTPTTPTPTPTGSDLGKKLLQAARAGQLDEVRELLKAGADVNAKDREGKTPLHVAAQEGHLEIVEVLLKAGADVNAKDVWGRTPLHLAAWIGHLEIVEVLLKAGADVNAKDVSGATPLHAAALHGHLEIVEVLLNAGADVNAQDKSGKTPADLAARAGHQDIAEVLQKAAGSPTPTPTTPTPTPTTPTPTPTGSDLGKKLLQAARAGQLDEVRELLKAGADVNAKDQEGITPLHVAAHQGHLEIVEVLLKAGADVNAKDVWGRTPLHLAAWRGHLEIVEVLLKAGADVNAKDHAGATPLHAAALSGHLEIVEVLLKAGADVNAQDKSGKTPADLAARAGHQDIAEVLQKAA
[1]
  IC50 LV (live virus cytopathic effect assay): 0.025 nM
[2]
  IC50 (read off the curve), SARS-CoV-2 VSV pseudotype virus, no competitor: ~0.1 nM
[3]
  Potency of inhibition of SARS-CoV-2 spike protein variants (IC50): 0.0121 nM
[4]
  Potency of inhibition of SARS-CoV-2 spike protein variants (IC50): 0.0165 nM
[5]
  Potency of inhibition of SARS-CoV-2 spike protein variants (IC50): 0.0275 nM
[6]
  Potency of inhibition of SARS-CoV-2 spike protein variants (IC50): 0.0271 nM
[7]
  Potency of inhibition of SARS-CoV-2 spike protein variants (IC50): 0.0118 nM
[8]
  VSV Pseudotype Neutralization Assay IC50: 1.7 ng/mL
[9]
  VSV Pseudotype Neutralization Assay IC50: 3 ng/mL
[10]
  VSV Pseudotype Neutralization Assay IC50: > 100 ng/mL
[11]
  VSV Pseudotype Neutralization Assay IC50: 0.5 ng/mL
[12]
  VSV Pseudotype Neutralization Assay IC50: 1.3 ng/mL
[13]
  VSV Pseudotype Neutralization Assay IC50: 1.9 ng/mL
[14]
  VSV Pseudotype Neutralization Assay IC50: 2.1 ng/mL
[15]
  VSV Pseudotype Neutralization Assay IC50: 1 ng/mL
[16]
  VSV Pseudotype Neutralization Assay IC50: 2.3 ng/mL
[17]
  VSV Pseudotype Neutralization Assay IC50: 1.5 ng/mL
[18]
  VSV Pseudotype Neutralization Assay IC50: 2.4 ng/mL
[19]
  VSV Pseudotype Neutralization Assay IC50: 0.5 ng/mL
[20]
  VSV Pseudotype Neutralization Assay IC50: 2.7 ng/mL
[21]
  VSV Pseudotype Neutralization Assay IC50: 2.2 ng/mL
[22]
  VSV Pseudotype Neutralization Assay IC50: 3.2 ng/mL
[23]
  VSV Pseudotype Neutralization Assay IC50: 3.8 ng/mL
[24]
  VSV Pseudotype Neutralization Assay IC50: 7.9 ng/mL
[25]
  VSV Pseudotype Neutralization Assay IC50: 2.7 ng/mL
